Assay [1] addresses T1, tag-free WDR59 (human, UniProt Q6PJI9 1-974).
T1 sequence: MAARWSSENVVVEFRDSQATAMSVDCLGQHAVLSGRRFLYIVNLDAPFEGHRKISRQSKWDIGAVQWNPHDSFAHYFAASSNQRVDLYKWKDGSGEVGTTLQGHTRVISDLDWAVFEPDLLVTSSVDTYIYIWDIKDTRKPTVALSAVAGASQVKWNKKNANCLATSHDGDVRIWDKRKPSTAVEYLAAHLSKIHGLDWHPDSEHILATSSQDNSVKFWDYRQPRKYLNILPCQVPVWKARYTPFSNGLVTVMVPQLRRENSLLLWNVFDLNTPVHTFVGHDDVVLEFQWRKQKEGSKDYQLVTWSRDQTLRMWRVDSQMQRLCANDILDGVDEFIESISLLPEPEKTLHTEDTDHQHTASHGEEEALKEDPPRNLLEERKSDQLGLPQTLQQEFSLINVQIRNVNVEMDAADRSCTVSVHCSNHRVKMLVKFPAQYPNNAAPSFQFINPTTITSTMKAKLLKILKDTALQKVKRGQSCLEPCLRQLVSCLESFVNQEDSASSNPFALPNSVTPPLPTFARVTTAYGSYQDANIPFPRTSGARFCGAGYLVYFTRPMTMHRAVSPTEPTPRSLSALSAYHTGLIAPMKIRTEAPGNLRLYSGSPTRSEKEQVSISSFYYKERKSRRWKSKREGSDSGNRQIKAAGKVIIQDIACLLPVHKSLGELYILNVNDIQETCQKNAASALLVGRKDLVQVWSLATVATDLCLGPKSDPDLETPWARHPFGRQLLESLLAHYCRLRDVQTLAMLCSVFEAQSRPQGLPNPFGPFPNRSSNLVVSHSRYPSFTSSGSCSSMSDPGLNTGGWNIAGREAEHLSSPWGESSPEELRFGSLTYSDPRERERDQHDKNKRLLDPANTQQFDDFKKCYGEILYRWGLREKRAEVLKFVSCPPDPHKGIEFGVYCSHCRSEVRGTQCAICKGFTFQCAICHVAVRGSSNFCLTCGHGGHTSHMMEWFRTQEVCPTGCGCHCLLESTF
Briefly: SEC. (SEC sorts molecules by how far they enter the pores of the column.)

The target of assay [2] is T1, tag-free WDR59. Briefly: cryo-EM structure.

B1: MIOS A560E (natural protein, human)
chain: MSGTKPDILWAPHHVDRFVVCDSELSLYHVESTVNSELKAGSLRLSEDSAATLLSINSDTPYMKCVAWYLNYDPECLLAVGQANGRVVLTSLGQDHNSKFKDLIGKEFVPKHARQCNTLAWNPLDSNWLAAGLDKHRADFSVLIWDICSKYTPDIVPMEKVKLSAGETETTLLVTKPLYELGQNDACLSLCWLPRDQKLLLAGMHRNLAIFDLRNTSQKMFVNTKAVQGVTVDPYFHDRVASFYEGQVAIWDLRKFEKPVLTLTEQPKPLTKVAWCPTRTGLLATLTRDSNIIRLYDMQHTPTPIGDETEPTIIERSVQPCDNYIASFAWHPTSQNRMIVVTPNRTMSDFTVFERISLAWSPITSLMWACGRHLYECTEEENDNSLEKDIATKMRLRALSRYGLDTEQVWRNHILAGNEDPQLKSLWYTLHFMKQYTEDMDQKSPGNKGSLVYAGIKSIVKSSLGMVESSRHNWSGLDKQSDIQNLNEERILALQLCGWIKKGTDVDVGPFLNSLVQEGEWERAAAVALFNLDIRRAIQILNEGASSEKGDLNLNVVAMELSGYTDEKNSLWREMCSTLRLQLNNPYLCVMFAFLTSETGSYDGVLYENKVAVRDRVAFACKFLSDTQLNRYIEKLTNEMKEAGNLEGILLTGLTKDGVDLMESYVDRTGDVQTASYCMLQGSPLDVLKDERVQYWIENYRNLLDAWRFWHKRAEFDIHRSKLDPSSKPLAQVFVSCNFCGKSISYSCSAVPHQGRGFSQYGVSGSPTKSKVTSCPGCRKPLPRCALCLINMGTPVSSCPGGTKSDEKVDLSKDKKLAQFNNWFTWCHNCRHGGHAGHMLSWFRDHAECPVSACTCKCMQLDTTGNLVPAETVQP
As to B1, the binding result in the assay with tag-free WDR59 [1] is reported as “binds”.

B2: N-terminally Flag-tagged MIOS (natural protein, human)
chain: MSGTKPDILWAPHHVDRFVVCDSELSLYHVESTVNSELKAGSLRLSEDSAATLLSINSDTPYMKCVAWYLNYDPECLLAVGQANGRVVLTSLGQDHNSKFKDLIGKEFVPKHARQCNTLAWNPLDSNWLAAGLDKHRADFSVLIWDICSKYTPDIVPMEKVKLSAGETETTLLVTKPLYELGQNDACLSLCWLPRDQKLLLAGMHRNLAIFDLRNTSQKMFVNTKAVQGVTVDPYFHDRVASFYEGQVAIWDLRKFEKPVLTLTEQPKPLTKVAWCPTRTGLLATLTRDSNIIRLYDMQHTPTPIGDETEPTIIERSVQPCDNYIASFAWHPTSQNRMIVVTPNRTMSDFTVFERISLAWSPITSLMWACGRHLYECTEEENDNSLEKDIATKMRLRALSRYGLDTEQVWRNHILAGNEDPQLKSLWYTLHFMKQYTEDMDQKSPGNKGSLVYAGIKSIVKSSLGMVESSRHNWSGLDKQSDIQNLNEERILALQLCGWIKKGTDVDVGPFLNSLVQEGEWERAAAVALFNLDIRRAIQILNEGASSEKGDLNLNVVAMALSGYTDEKNSLWREMCSTLRLQLNNPYLCVMFAFLTSETGSYDGVLYENKVAVRDRVAFACKFLSDTQLNRYIEKLTNEMKEAGNLEGILLTGLTKDGVDLMESYVDRTGDVQTASYCMLQGSPLDVLKDERVQYWIENYRNLLDAWRFWHKRAEFDIHRSKLDPSSKPLAQVFVSCNFCGKSISYSCSAVPHQGRGFSQYGVSGSPTKSKVTSCPGCRKPLPRCALCLINMGTPVSSCPGGTKSDEKVDLSKDKKLAQFNNWFTWCHNCRHGGHAGHMLSWFRDHAECPVSACTCKCMQLDTTGNLVPAETVQP
Regarding B2, the binding result with tag-free WDR59 [2] is “binds”.

B3: WDR24 ∆CTD (domain or fragment, human, UniProt Q96S15 1-700, looked up)
chain: MEKMSRVTTALGGSVLTGRTMHCHLDAPANAISVCRDAAQVVVAGRSIFKIYAIEEEQFVEKLNLRVGRKPSLNLSCADVVWHQMDENLLATAATNGVVVTWNLGRPSRNKQDQLFTEHKRTVNKVCFHPTEAHVLLSGSQDGFMKCFDLRRKDSVSTFSGQSESVRDVQFSIRDYFTFASTFENGNVQLWDIRRPDRCERMFTAHNGPVFCCDWHPEDRGWLATGGRDKMVKVWDMTTHRAKEMHCVQTIASVARVKWRPECRHHLATCSMMVDHNIYVWDVRRPFVPAAMFEEHRDVTTGIAWRHPHDPSFLLSGSKDSSLCQHLFRDASQPVERANPEGLCYGLFGDLAFAAKESLVAAESGRKPYTGDRRHPIFFKRKLDPAEPFAGLASSALSVFETEPGGGGMRWFVDTAERYALAGRPLAELCDHNAKVARELGRNQVAQTWTMLRIIYCSPGLVPTANLNHSVGKGGSCGLPLMNSFNLKDMAPGLGSETRLDRSKGDARSDTVLLDSSATLITNEDNEETEGSDVPADYLLGDVEGEEDELYLLDPEHAHPEDPECVLPQEAFPLRHEIVDTPPGPEHLQDKADSPHVSGSEADVASLAPVDSSFSLLSVSHALYDSRLPPDFFGVLVRDMLHFYAEQGDVQMAVSVLIVLGERVRKDIDEQTQEHWYTSYIDLLQRFRLWNVSNEVVKLS
As to B3, the binding result in the assay with tag-free WDR59 [1] is “binds”.
